# Biological target: T1, MLL4 PHD2/3 fingers (aa 227-324), 15N-labeled (human, UniProt O14686 227-324, uniformly 15N-labeled)
# T1 sequence (looked up): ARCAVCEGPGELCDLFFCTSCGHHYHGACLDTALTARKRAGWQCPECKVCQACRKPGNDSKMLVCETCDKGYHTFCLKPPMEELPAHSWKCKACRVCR
# Test: NMR titration
row,Binder,binding result
1,"NRTGAITLADIKAKAQLVKAQ (peptide, UniProt Q76L83 650-670, looked up) [ASXL2 peptide (residues 650-670 of ASXL2) R655I]",binds
2,"GWTGARTLADIKARALQVRGA (peptide, UniProt Q8IXJ9 607-627, looked up) [ASXL1 peptide (residues 607-627 of ASXL1), wild type]",binds
3,"GWTGTRTLADIKARALQVRGA (peptide, UniProt Q8IXJ9 607-627, looked up) [ASXL1 peptide (residues 607-627 of ASXL1) A611T]",binds
